A word on the stoichiometry N: it is the number of molecules, sites or subunits per partner or assembly.

The target in the assay is HIV-1 Gag-glutathione-S-transferase (GST) fusion protein, wild type (HIV-1). The experiment in a line: cross-linking + pull-down.

B1: 2',3'-cyclic-nucleotide 3'-phosphodiesterase (CNP), human, wild type (natural protein)
chain: MNRGFSRKSHTFLPKIFFRKMSSSGAKDKPELQFPFLQDEDTVATLLECKTLFILRGLPGSGKSTLARVIVDKYRDGTKMVSADAYKITPGARGAFSEEYKRLDEDLAAYCRRRDIRILVLDDTNHERERLEQLFEMADQYQYQVVLVEPKTAWRLDCAQLKEKNQWQLSADDLKKLKPGLEKDFLPLYFGWFLTKKSSETLRKAGQVFLEELGNHKAFKKELRQFVPGDEPREKMDLVTYFGKRPPGVLHCTTKFCDYGKAPGAEEYAQQDVLKKSYSKAFTLTISALFVTPKTTGARVELSEQQLQLWPSDVDKLSPTDNLPRGSRAHITLGCAADVEAVQTGLDLLEILRQEKGGSRGEEVGELSRGKLYSLGNGRWMLTLAKNMEVRAIFTGYYGKGKPVPTQGSRKGGALQSCTII
For B1, the stoichiometry N is 1 CNP:Gag-GST.

These data come from article PMC3498451.
